Results reported in patent US20160052997A1 (CELLTRION, published 2016).
“And” between values parts separate entries of the source, which are not always exact repeats. Equal values may be shown once. Read-outs that look alike come from different tables or passages of the source.

Key:
[1] = target: T1, purified recombinant HA protein of H1N1 (A/Solomon Island/03/06) (Influenza A virus A/Solomon …)
[2] = target: T2, HA of A/Texas/05/2009 (H1N1) virus (Influenza A virus A/Texas/05/2009 (H1N1)); test: cell-based or functional assay
[3] = target: T3, HA of A/New York/18/2009 (H1N1) virus (Influenza A virus A/New York/18/2009 …); test: cell-based or functional assay
[4] = target: T4, HA of A/Solomon Islands/2006 (H1N1) virus (Influenza A virus A/Solomon …); test: cell-based or functional assay
[5] = target: T5, HA of A/Ohio/83 (H1N1) virus (Influenza A virus A/Ohio/83 (H1N1)); test: cell-based or functional assay
[6] = target: T2, HA of A/Texas/05/2009 (H1N1) virus; test: cell-based or functional assay; remark: listed apart in the source
[7] = target: T3, HA of A/New York/18/2009 (H1N1) virus; test: cell-based or functional assay; remark: listed apart in the source
[8] = target: T4, HA of A/Solomon Islands/2006 (H1N1) …; test: cell-based or functional assay; remark: listed apart in the source
[9] = target: T5, HA of A/Ohio/83 (H1N1) virus; test: cell-based or functional assay; remark: listed apart in the source
[10] = target: T6, HA of A/Ohio/07/2009 (H1N1) virus (Influenza A virus A/Ohio/07/2009 (H1N1)); test: cell-based or functional assay
[11] = target: T7, HA of A/Ann Arbor/6/60 ca (H2N2) virus (Influenza A virus A/Ann Arbor/6/60 ca …); test: cell-based or functional assay
[12] = target: T8, HA of Anhui/1/05 (H5N1) virus (Influenza A virus A/Anhui/1/05 (H5N1)); test: cell-based or functional assay
[13] = target: T9, HA of A/ck/HK/G9/97 (H9N2) virus (Influenza A virus A/ck/HK/G9/97 (H9N2)); test: cell-based or functional assay
[14] = target: HA of A/Green-winged teal/209/TX/2009 (H9N2) virus (Influenza A virus A/Green-winged …); test: cell-based or functional assay
[15] = target: T10, HA of A/Wisconsin/67/05 (H3N2) virus (Influenza A virus A/Wisconsin/67/05 …); test: cell-based or functional assay
[16] = target: T11, HA of A/Brisbane/10/07 (H3N2) virus (Influenza A virus A/Brisbane/10/07 …); test: cell-based or functional assay
[17] = target: HA of A/turkeyNirginia/02 (H7N2) virus (Influenza A virus A/turkey/Virginia/02 …); test: cell-based or functional assay
[18] = target: T2, HA of A/Texas/05/2009 (H1N1) virus; test: cell-based or functional assay; remark: listed apart in the source
[19] = target: T4, HA of A/Solomon Islands/2006 (H1N1) …; test: cell-based or functional assay; remark: listed apart in the source
[20] = target: T5, HA of A/Ohio/83 (H1N1) virus; test: cell-based or functional assay; remark: listed apart in the source
[21] = target: T6, HA of A/Ohio/07/2009 (H1N1) virus; test: cell-based or functional assay; remark: listed apart in the source
[22] = target: T7, HA of A/Ann Arbor/6/60 ca (H2N2) virus; test: cell-based or functional assay; remark: listed apart in the source
[23] = target: T8, HA of Anhui/1/05 (H5N1) virus; test: cell-based or functional assay; remark: listed apart in the source
[24] = target: T9, HA of A/ck/HK/G9/97 (H9N2) virus; test: cell-based or functional assay; remark: listed apart in the source
[25] = target: HA of A/PuertoRico/8/34 (H1N1) virus (Influenza A virus A/PuertoRico/8/34 …, UniProt P03452 18-565); test: cell-based or functional assay
[26] = target: T1, purified recombinant HA protein of H1N1 …; test: SPR, Biacore T200, HA captured via anti-6x his tag antibody, 25 C
[27] = target: T10, HA of A/Wisconsin/67/05 (H3N2) virus; test: cell-based or functional assay; remark: listed apart in the source
[28] = target: T12, HA of A/Hong Kong/68 (H3N2) virus (Influenza A virus A/Hong Kong/68 (H3N2)); test: cell-based or functional assay
[29] = target: T11, HA of A/Brisbane/10/07 (H3N2) virus; test: cell-based or functional assay; remark: listed apart in the source
[30] = target: T12, HA of A/Hong Kong/68 (H3N2) virus; test: cell-based or functional assay; remark: listed apart in the source
[31] = target: HA of A/Sydney/5/97 (H3N2) virus (Influenza A virus A/Sydney/5/97 (H3N2)); test: cell-based or functional assay
[32] = target: HA of A/Beijing/32/92-R-H3N2 PR8 virus (Influenza A virus A/Beijing/32/92 (H3N2)); test: cell-based or functional assay
[33] = target: HA of A/Perth/16/09 (H3N2) virus (Influenza A virus A/Perth/16/09 (H3N2)); test: cell-based or functional assay
[34] = target: HA of A/Anhui/1/2013 (H7N9) virus (Influenza A virus A/Anhui/1/2013 (H7N9)); test: cell-based or functional assay
[35] = target: HA of A/Shanghai/2/2013 (H7N9) virus (Influenza A virus A/Shanghai/2/2013 …); test: cell-based or functional assay

Binder	Kd [1]	MN test: lowest antibody concentration at which no virus antigen was detected [2]	MN test: lowest antibody concentration at which no virus antigen was detected [3]	MN test: lowest antibody concentration at which no virus antigen was detected [4]	MN test: lowest antibody concentration at which no virus antigen was detected [5]	MN test: lowest antibody concentration at which no virus antigen was detected [6]	MN test: lowest antibody concentration at which no virus antigen was detected [7]	MN test: lowest antibody concentration at which no virus antigen was detected [8]	MN test: lowest antibody concentration at which no virus antigen was detected [9]	MN test: lowest antibody concentration at which no virus antigen was detected [10]	MN test: lowest antibody concentration at which no virus antigen was detected [11]	MN test: lowest antibody concentration at which no virus antigen was detected [12]	MN test: lowest antibody concentration at which no virus antigen was detected [13]	MN test: lowest antibody concentration at which no virus antigen was detected [14]	MN test: lowest antibody concentration at which no virus antigen was detected [15]	MN test: lowest antibody concentration at which no virus antigen was detected [16]	MN test: lowest antibody concentration at which no virus antigen was detected [17]	EC50, microneutralization test [23]	EC50, microneutralization test [24]	Kd [26]	further results
CT120 (antibody, V domains shown) VH: QVQLVQSGAEVKMPGSSVKVSCKTSGVFFSSHAISWVRQAPGQGLEWMGGISPMFGTTHYAQKFQGRVTITADQSTTTAYMELTSLTSEDTAVYYCARDGAGSYYPLNWFDPWGQGTLVTVSS VL: EIVLTQSPATLSLSPGERATLSCRASENIWNNLAWYQQKPGQAPRLLISGASTGATGVPSRFRGSGSRTEFTLTISSLQSEDFAIYFCQQYNSWPRTFGPGTKVEIKR	2.82 nM	0.313 µg/mL	0.313 µg/mL	0.625 µg/mL	0.156 µg/mL	0.156 µg/mL	0.313 µg/mL	0.625 µg/mL	0.156 µg/mL	0.039 µg/mL	0.312 µg/mL	0.625 µg/mL	0.078 µg/mL	0.625 µg/mL	> 10 µg/mL	> 20 µg/mL	> 20 µg/mL	6.92 µg/mL	3.12 µg/mL	2.79 nM and 2.85 nM	EC50, microneutralization test [18]: 1.19 µg/mL; EC50, microneutralization test [19]: 0.25 µg/mL; EC50, microneutralization test [20]: 0.26 µg/mL; EC50, microneutralization test [21]: 0.14 µg/mL; EC50, microneutralization test [22]: 6.53 µg/mL; EC50, microneutralization test [25]: 0.33 µg/mL; koff [26]: 0.000684 s⁻¹ and 0.000703 s⁻¹; kon [26]: 245000 M⁻¹ s⁻¹ and 246000 M⁻¹ s⁻¹
CT104 (antibody, V domains shown) VH: QVQLVQSGAEVKKPGSSVKVSCKASGGTLNNYAISWVRQAPGQGLEWMGGISPIFGTLNYAERFQGRVTITADVFTNTVYMELSSLRSEDTAVYFCARGCGYNCYYFDGWGQGTLVTVSS VL: EIVLTQSPGTLSLSPGERATLSCRASQSLSSSSLVWYQQKPGQAPRLLIYGASSRATGIPDRFSGSGSGTDFTLTISRLEPEDFAVYYCQQYGNSPYTFGQGTQVEIKR		0.313 µg/mL	0.625 µg/mL	0.625 µg/mL	0.313 µg/mL																
CT123 (antibody, V domains shown) VH: QVQLVESGGGVVQPGRSLRLSCAASGFTFSRFGIHWVRQAPGKGLEWMAVIWYDGSNKFYADSVKGRFTISRDNSKNTVYLQMNSLRAEDTAVYYCAKDSRGYCSSIICFEGGLDNWGQGTLVTVSS VL: ETVLTQSPGTLSLSPGERATLSCRASQSVSISYLAWYQRKPGQAPRLLIYGASRRATGIPDRFSGSGSGTDFTLTISRLEPEDFAVYYCQQYGSSPYTFGQGTKLEIKR		0.313 µg/mL	0.625 µg/mL	1.25 µg/mL	0.313 µg/mL																
CT149 (antibody, V domains shown) VH: QVQLVQSGAEVKKPGASVKVSCKTSGYSFSTYGVSWVRQAPGQGPEWVGWISAYTGITDYAQKFQGRVTLTTDATTATAFLDLRSLRPDDTATYFCARDKVQGRVEVGSGGRHDYWGQGTLVIVSS VL: EVVLTQSPGTLALPPGERATLSCRASHRVGSTYIAWYQQKSGQAPRRLIYGASNRATDIPDRFSGSGSGTDFTLTIRRLEPEDSAVYYCQQFSVSPWTFGQGTRVEIKR	345 nM					> 10 µg/mL	> 10 µg/mL	> 10 µg/mL	> 10 µg/mL	5 µg/mL	> 10 µg/mL	0.625 µg/mL	0.312 µg/mL	0.156 µg/mL	1.25 µg/mL	1.25 µg/mL	10 µg/mL	11 µg/mL	7.39 µg/mL	368 nM and 323 nM	MN test: lowest antibody concentration at which no virus antigen was detected [27]: 1.25 µg/mL; MN test: lowest antibody concentration at which no virus antigen was detected [28]: 2.5 µg/mL; MN test: lowest antibody concentration at which no virus antigen was detected [29]: 1.25 µg/mL; MN test: lowest antibody concentration at which no virus antigen was detected [30]: 2.5 µg/mL; EC50, microneutralization test [31]: 2.93 µg/mL; EC50, microneutralization test [32]: 1.36 µg/mL; EC50, microneutralization test [33]: 2.06 µg/mL; EC50, microneutralization test (Contract Lab A) [34]: 0.9 µg/mL; EC50, microneutralization test (Contract Lab A) [35]: 1.17 µg/mL; EC50, microneutralization test (Contract Lab B) [35]: 7.71 µg/mL; koff [26]: 0.0904 s⁻¹ and 0.105 s⁻¹; kon [26]: 246000 M⁻¹ s⁻¹ and 324000 M⁻¹ s⁻¹
